Where a chain is given by its changes, count along the chain named.
Legend:
[1] = biological target: T1, human DLL3 (ACRO, DLL3-H52H4) (human, UniProt Q9NYJ7 27-492); experiment: SPR Biacore 8K, Ab captured on Protein A
T1 construct: Bought
T1 sequence: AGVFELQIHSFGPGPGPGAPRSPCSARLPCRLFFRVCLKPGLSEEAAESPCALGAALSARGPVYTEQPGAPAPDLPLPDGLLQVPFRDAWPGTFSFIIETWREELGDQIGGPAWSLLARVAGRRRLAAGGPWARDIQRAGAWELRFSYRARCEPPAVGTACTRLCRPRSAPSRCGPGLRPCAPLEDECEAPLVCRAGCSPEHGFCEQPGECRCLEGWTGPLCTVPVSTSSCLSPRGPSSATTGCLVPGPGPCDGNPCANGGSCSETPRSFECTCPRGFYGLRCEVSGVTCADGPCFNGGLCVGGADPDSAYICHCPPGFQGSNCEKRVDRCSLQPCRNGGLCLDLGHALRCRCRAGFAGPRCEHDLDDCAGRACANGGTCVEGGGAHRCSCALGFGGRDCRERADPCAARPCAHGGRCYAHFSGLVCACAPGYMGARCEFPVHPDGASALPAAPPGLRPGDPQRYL
How it was run: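 Antibodies captured on a Protein A chip for 18 s; DLL3 or CD3D&3E antigen flowed 180 s, then 600 s dissociation, with real-time detection. Regeneration used 10 mM glycine-HCl pH 1.5 between cycles. Kinetics were obtained by 1:1 model fitting.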

human DLL3 on cells [2] = biological target: T2, human DLL3 on cells (human, UniProt Q9NYJ7 27-618); experiment: flow cytometry, SHP77 cells
T2 construct: Endogenous on H1184 and SHP77; Cell line is named under assay; also called H1184; DLL3/H82
T2 sequence: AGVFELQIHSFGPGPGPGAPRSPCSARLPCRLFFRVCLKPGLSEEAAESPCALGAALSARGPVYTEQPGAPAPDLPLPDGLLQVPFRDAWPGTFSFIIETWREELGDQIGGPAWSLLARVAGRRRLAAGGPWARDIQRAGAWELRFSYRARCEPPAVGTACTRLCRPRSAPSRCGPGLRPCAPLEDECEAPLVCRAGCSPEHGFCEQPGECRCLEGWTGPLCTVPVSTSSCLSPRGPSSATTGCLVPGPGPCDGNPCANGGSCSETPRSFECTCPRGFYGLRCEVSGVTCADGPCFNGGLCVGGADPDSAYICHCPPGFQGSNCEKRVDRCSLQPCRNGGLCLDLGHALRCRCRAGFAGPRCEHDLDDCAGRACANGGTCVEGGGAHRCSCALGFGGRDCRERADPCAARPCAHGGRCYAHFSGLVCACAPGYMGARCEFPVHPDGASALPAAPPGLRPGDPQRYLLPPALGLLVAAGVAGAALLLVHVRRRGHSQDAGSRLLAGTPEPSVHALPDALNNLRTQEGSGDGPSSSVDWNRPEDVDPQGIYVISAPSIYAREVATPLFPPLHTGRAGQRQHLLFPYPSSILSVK
Experimental: (§1) The plates were centrifuged at 300 g for 5 min, and the supernatant was removed. Different concentrations of test antibodies were added at 100 μL/well. The plates were incubated in the dark in a refrigerator at 4° C. for 1 h. After 3 centrifugal washes at 300 g, working concentrations of APC anti-human IgG Fc (BioLegend, 410712) or PE F(ab′)2-goat anti-human IgG (invitrogen, H10104) were added. The plates were incubated in the dark in a refrigerator at 4° C. for 40 min. After 3 centrifugal washes at 300 g, the geometric mean fluorescence intensity was measured on an Invitrogen flow cytometer, and the EC50 values for the binding of the antibodies to DLL3-expressing cells were calculated.

human DLL3 on cells [3] = biological target: T2, human DLL3 on cells; experiment: flow cytometry, DLL3/H82 cells; parameters: key to Emax: geometric mean fluorescence intensity (flow cytometry)
Experimental: as §1

hCTLA4 = biological target: T3, hCTLA4 (human, UniProt P16410 36-162, limits assumed); experiment: ELISA
T3 construct: bought
T3 sequence (P16410 36-162 limits assumed): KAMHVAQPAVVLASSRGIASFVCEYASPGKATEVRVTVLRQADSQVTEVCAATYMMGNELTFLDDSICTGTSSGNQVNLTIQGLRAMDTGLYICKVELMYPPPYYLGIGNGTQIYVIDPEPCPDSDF

hPDL1 = biological target: T4, hPDL1 (human, UniProt Q9NZQ7 19-239); experiment: ELISA
T4 construct: bought
T4 sequence (Q9NZQ7 19-239 limits assumed): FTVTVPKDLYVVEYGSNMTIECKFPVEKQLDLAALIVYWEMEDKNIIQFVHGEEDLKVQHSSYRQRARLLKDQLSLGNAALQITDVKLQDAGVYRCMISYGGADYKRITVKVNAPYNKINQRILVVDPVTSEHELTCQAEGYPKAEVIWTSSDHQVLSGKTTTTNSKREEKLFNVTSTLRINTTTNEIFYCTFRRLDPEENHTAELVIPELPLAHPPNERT

hTSLP = hTSLP (human, UniProt Q969D9 29-159); experiment: ELISA
hIL5 = hIL5 (human, UniProt P05113 20-134); experiment: ELISA

B1: hu30L1H5 (antibody, human IgG1, kappa, V domains shown)
VH: EVRLVQSGAEVKKPGASVKVSCKASGYTFTDYYMNWVRQAPGQSLEWMGIINPYTGDTSYNQKFRGRVTLTVDKSASTAYMELSSLRSEDTAVYYCARYHYGPHLEGYFDVWGQGTTVTVSS
VL: DIVMTQSPDSLAVSLGERATINCKASENVGYVSWYQQKPGQPPKLLIYGASNRYTGVPDRFSGSGSGTDFTLTISSLQAEDVAVYYCGQSYSYPLTFGQGTKLEIKR
Kd [1]: 0.952 nM | koff [1]: 0.00117 s⁻¹ | kon [1]: 1.23e+06 M⁻¹ s⁻¹ | EC50 (human DLL3 on cells [2]): 6.45 nM | Emax (human DLL3 on cells [2]): 1540 | EC50 (human DLL3 on cells [3]): 0.88 nM | Emax (human DLL3 on cells [3]): 6800

B2: hu30L4H5 (antibody, human IgG1, kappa, V domains shown)
VH: B1 VH
VL: DIQMTQSPSSLSASVGDRVTITCKASENVGYVSWYQQKPGKAPKLLIYGASNRYTGVPSRFSGSGSGTDFTLTISSLQPEDFATYYCGQSYSYPLTFGQGTKLEIKR
Kd [1]: 2.09 nM | koff [1]: 0.00092 s⁻¹ | kon [1]: 440000 M⁻¹ s⁻¹ | EC50 (human DLL3 on cells [2]): 5.44 nM | Emax (human DLL3 on cells [2]): 1460

B3: hu30L5H9 (antibody, human IgG1, kappa, V domains shown)
VH: B1 VH with M48I, V68A
VL: B2 VL with A42S, S59D, Q99S
Kd [1]: 2.48 nM | koff [1]: 0.000989 s⁻¹ | kon [1]: 399000 M⁻¹ s⁻¹ | EC50 (human DLL3 on cells [2]): 9.6 nM | Emax (human DLL3 on cells [2]): 1560

B4: hu30L5H5 (antibody, human IgG1, kappa, V domains shown)
VH: B1 VH
VL: B2 VL with A42S, S59D, Q99S
Kd [1]: 1.98 nM | koff [1]: 0.000882 s⁻¹ | kon [1]: 446000 M⁻¹ s⁻¹ | EC50 (human DLL3 on cells [2]): 7.48 nM | Emax (human DLL3 on cells [2]): 1610

B5: hu30L1H10 (antibody, human IgG1, kappa, V domains shown)
VH: B1 VH with A40S, P41H
VL: B1 VL
Kd [1]: 2.19 nM | koff [1]: 0.000964 s⁻¹ | kon [1]: 440000 M⁻¹ s⁻¹ | EC50 (human DLL3 on cells [2]): 7.99 nM | Emax (human DLL3 on cells [2]): 1630

B6: hu30L4H8 (antibody, human IgG1, kappa, V domains shown)
VH: B1 VH with S7F, E10V, A76S
VL: B2 VL
Kd [1]: 2.74 nM | koff [1]: 0.000942 s⁻¹ | kon [1]: 343000 M⁻¹ s⁻¹ | EC50 (human DLL3 on cells [2]): 5.3 nM | Emax (human DLL3 on cells [2]): 1420

B7: hu30L4H11 (antibody, human IgG1, kappa, V domains shown)
VH: B1 VH with S7F, E10V, A76S, R87T
VL: B2 VL
Kd [1]: 2.84 nM | koff [1]: 0.00113 s⁻¹ | kon [1]: 398000 M⁻¹ s⁻¹ | EC50 (human DLL3 on cells [2]): 7.82 nM | Emax (human DLL3 on cells [2]): 1520

B8: hu30L4H9 (antibody, human IgG1, kappa, V domains shown)
VH: B1 VH with M48I, V68A
VL: B2 VL
Kd [1]: 2.57 nM | koff [1]: 0.00101 s⁻¹ | kon [1]: 392000 M⁻¹ s⁻¹ | EC50 (human DLL3 on cells [2]): 9.94 nM | Emax (human DLL3 on cells [2]): 1370

B9: hu30L1H8 (antibody, human IgG1, kappa, V domains shown)
VH: B1 VH with S7F, E10V, A76S
VL: B1 VL
Kd [1]: 2.57 nM | koff [1]: 0.00109 s⁻¹ | kon [1]: 425000 M⁻¹ s⁻¹ | EC50 (human DLL3 on cells [2]): 5.67 nM | Emax (human DLL3 on cells [2]): 1380

B10: PL-13 (bispecific antibody)
chain 1: not shown
chain 2: DIVLTQSPASLAVSPGQRATITCRASESVSIHGTHLMHWYQQKPGQPPKLLIYAASKLESGVPARFSGSGSGTDFTLTINPVEAEDTANYYCQQSFEDPLTFGQGTKLEIKRTVASGIPPKIECLPIDISIDEGKVLTVASCFTGEPTPEVTWSTGGRKIHSQEQGRFHIENTDDSTTLTIKDVQKQDGGLYTLTLRNEFGSDSATVNIHIRSI
chain 3: not shown
chain 4: not shown
EC50 (hCTLA4): 4.4 nM | EC50 (hPDL1): 0.5 nM

B11: PL-19 (bispecific antibody)
chain 1: not shown
chain 2: B10 chain 2
chain 3: not shown
chain 4: not shown
EC50 (hCTLA4): 6.5 nM | EC50 (hPDL1): 1.6 nM

B12: PL-14 (bispecific antibody)
chain 1: not shown
chain 2: B10 chain 2 with C142A
chain 3: not shown
chain 4: not shown
EC50 (hCTLA4): 6 nM | EC50 (hPDL1): 1.3 nM

B13: PL-15 (bispecific antibody)
chain 1: not shown
chain 2: B10 chain 2 with V136C, C142A
chain 3: not shown
chain 4: not shown
EC50 (hCTLA4): 3.2 nM | EC50 (hPDL1): 1.4 nM

B14: PL-17 (bispecific antibody)
chain 1: not shown
chain 2: B10 chain 2 with C142A
chain 3: not shown
chain 4: not shown
EC50 (hCTLA4): 6.2 nM | EC50 (hPDL1): 1.4 nM

B15: PL-16 (bispecific antibody)
chain 1: not shown
chain 2: B10 chain 2
chain 3: not shown
chain 4: not shown
EC50 (hCTLA4): 34.9 nM | EC50 (hPDL1): 1.7 nM

B16: PL-18 (bispecific antibody)
chain 1: not shown
chain 2: B10 chain 2 with V136C, C142A
chain 3: not shown
chain 4: not shown
EC50 (hCTLA4): 6.7 nM | EC50 (hPDL1): 1.6 nM

B17: HJ-3 (bispecific antibody)
chain 1: not shown
chain 2: DIQMTQSPSSVSASVGDRVTITCRASQDIANYLSWYQQKPGKSPKLLIYGTSNLEVGVPSRFSGSRSGTDFTLTISSLQPEDFATYYCLQDKEFPRTFGGGTKVEIKGGGGSSGAPRFLTRPLAFVVSVGKDATLSSQIVGNPTPQVSWEKDKQPVTAGARFRLAQDGDLYRLKILDLQLSDSGQYVSRARNAIGEAFACLGLQVDAEA
chain 3: EVQLVQSGAEVKKPGSSVKVSCKASGYTFSNYLIEWVRQAPGQGLEWIGVIDPGVGDTNYNENFKGRATLTADKSTSTAYIELSSLRSEDTAVYYCAREDNTGTAFDYWGQGTTVTVSSASTKGPSVFPLAPSSKSTSGGTAALGCLVKDYFPEPVTVSWNSGALTSGVHTFPAVLQSSGLYSLSSVVTVPSSSLGTQTYICNVNHKPSNTKVDKKVEPKSCDKTHTCPPCPAPEAAGGPSVFLFPPKPKDTLMISRTPEVTCVVVDVSHEDPEVKFNWYVDGVEVHNAKTKPREEQYNSTYRVVSVLTVLHQDWLNGKEYKCKVSNKALPAPIEKTISKAKGQPREPQVCTLPPSREEMTKNQVSLSCAVKGFYPSDIAVEWESNGQPENNYKTTPPVLDSDGSFFLVSKLTVDKSRWQQGNVFSCSVMHEALHNHYTQKSLSLSPGKDYKDDDDK
chain 4: SIVMTQTPLSLSVTPGQPASISCKASQSVSSDVTWYLQKPGQSPQLLIYYVSEHYTGVPDRFSGSGYGTDFTLKISRVEAEDVGVYYCQQHHRFPLTFGQGTKLEIKRTVAAPSVFIFPPSDEQLKSGTASVVCLLNNFYPREAKVQWKVDNALQSGNSQESVTEQDSKDSTYSLSSTLTLSKADYEKHKVYACEVTHQGLSSPVTKSFNRGEC
EC50 (hTSLP): 3.23 nM | EC50 (hIL5): 17.4 nM

B18: HJ-5 (bispecific antibody)
chain 1: not shown
chain 2: B17 chain 2 with L123K, F125S, T144F, A160V, I194H
chain 3: EVQLVQSGAEVKKPGSSVKVSCKASGYTFSNYLIEWVRQAPGQGLEWIGVIDPGVGDTNYNENFKGRATLTADKSTSTAYIELSSLRSEDTAVYYCAREDNTGTAFDYWGQGTTVTVSSASTKGPSVFPLAPSSKSTSGGTAALGCLVKDYFPEPVTVSWNSGALTSGVHTFPAVLQSSGLYSLSSVVTVPSSSLGTQTYICNVNHKPSNTKVDKKVEPKSCDKTHTCPPCPAPEAAGGPSVFLFPPKPKDTLMISRTPEVTCVVVDVSHEDPEVKFNWYVDGVEVHNAKTKPREEQYNSTYRVVSVLTVLHQDWLNGKEYKCKVSNKALPAPIEKTISKAKGQPREPQVCTLPPSREEMTKNQVSLSCAVKGFYPSDIAVEWESNGQPENNYKTTPPVLDSDGSFFLVSKLTVDKSRWQQGNVFSCSVMHEALHNHYTQKSLSLSPGK
chain 4: B17 chain 4
EC50 (hTSLP): 2.64 nM | EC50 (hIL5): 16 nM

— US20250376519A1 (JIANGSU HENGRUI PHARMACEUTICALS, published 2025)
